Reference: patent US20250051474A1, “ANTI-CD97 ANTIBODIES AND ANTIBODY-DRUG CONJUGATES” (New York University, priority 2023, published 2025)
Changes are numbered by the printed parent chain.

Legend:
CD97 isoform 1 = molecular target: T1, CD97 isoform 1 (Homo sapiens, UniProt P48960); test: Bead-based binding assay of Fab clones; conditions: for binding of A8 CDRH3 mutants to CD97 isoform 1: Fab format, compared with wild type A8
T1 construct: The genes encoding the ectodomains of CD97 (isoforms 1 and 2) and EMR2 (isoforms 1 and 4); inferred from IMAC purification; inferred from BirA biotinylation; made in house; host or cells: expi293F
T1 sequence (P48960 21-552 limits assumed): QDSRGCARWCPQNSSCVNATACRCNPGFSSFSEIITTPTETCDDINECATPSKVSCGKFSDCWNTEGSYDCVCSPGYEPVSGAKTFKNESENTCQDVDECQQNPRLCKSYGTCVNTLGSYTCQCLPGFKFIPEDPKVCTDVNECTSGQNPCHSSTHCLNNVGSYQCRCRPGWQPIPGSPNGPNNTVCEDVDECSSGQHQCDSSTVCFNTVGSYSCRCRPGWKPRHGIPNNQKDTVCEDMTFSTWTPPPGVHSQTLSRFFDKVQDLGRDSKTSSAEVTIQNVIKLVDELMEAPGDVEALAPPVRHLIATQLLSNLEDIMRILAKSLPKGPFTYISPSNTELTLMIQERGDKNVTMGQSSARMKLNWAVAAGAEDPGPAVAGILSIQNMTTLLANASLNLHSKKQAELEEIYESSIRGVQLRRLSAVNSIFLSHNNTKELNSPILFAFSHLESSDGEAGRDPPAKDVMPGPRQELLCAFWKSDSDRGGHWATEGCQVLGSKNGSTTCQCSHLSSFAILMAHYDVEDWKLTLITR
Description: Binding titration of the Fab clones was performed by a bead binding assay, as described previously (7,8). Briefly, biotinylated antigens were immobilized on Dynabeads M-280 streptavidin (Thermo Fisher). The biotinylated Fab clones were titrated into a solution containing the antigen-coated beads. After incubation, the beads were washed three times and incubated with anti-human F(ab′)2-Alexa Fluor 647 (Jackson ImmunoResearch). The beads were further washed three times and analyzed on a HyperCyt (Intellicyt).
The genes encoding the ectodomains of CD97 (isoforms 1 and 2) and EMR2 (isoforms 1 and 4) (FIG. 1) were synthesized (Integrated DNA Technologies) and cloned into the mammalian expression vector pBCAG. The expi293F cells (Thermo Fisher) were transfected with the vectors using the ExpiFectamine 293 transfection kit (Thermo Fisher) according to the manufacturer's protocol. The cells were incubated at 37° C. with 8% CO2. The proteins were purified from the cell culture supernatant by immobilized metal affinity chromatography (IMAC). The purified proteins were biotinylated in vitro using the BirA enzyme in the presence of 0.5 mM Biotin and 10 mM ATP. After the removal of the BirA enzyme by IMAC, the proteins were further purified by size exclusion chromatography using a Superdex 200 10/300 Increase (Cytiva). The purity of the proteins was confirmed by SDS-PAGE.

[1] = molecular target: T2, CD97 (ADGRE5) isoform 2 ectodomain, purified and biotinylated (human, UniProt P48960 21-552, biotinylated in vitro using the BirA enzyme); test: bead-based binding titration (biotinylated antigen on streptavidin beads, flow cytometry), 1:1 fit [Continued]
T2 construct: the whole entry for isoform 2 is named here; also called CD97 isoform 2
T2 sequence: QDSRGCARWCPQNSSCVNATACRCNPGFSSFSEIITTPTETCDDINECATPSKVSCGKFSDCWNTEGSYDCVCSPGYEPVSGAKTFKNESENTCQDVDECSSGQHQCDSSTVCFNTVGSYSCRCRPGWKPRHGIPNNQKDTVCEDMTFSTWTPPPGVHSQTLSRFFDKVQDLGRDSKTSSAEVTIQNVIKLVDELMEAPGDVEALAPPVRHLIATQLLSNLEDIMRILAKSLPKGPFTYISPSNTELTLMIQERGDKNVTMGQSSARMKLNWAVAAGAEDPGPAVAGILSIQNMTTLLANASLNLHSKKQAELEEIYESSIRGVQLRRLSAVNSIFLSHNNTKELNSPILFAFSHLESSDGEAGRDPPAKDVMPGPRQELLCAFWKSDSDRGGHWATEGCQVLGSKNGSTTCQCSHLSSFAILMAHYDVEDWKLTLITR

[2] = molecular target: T3, CD97 (ADGRE5) isoform 1 ectodomain, purified and biotinylated (human, UniProt P48960 21-552, limits assumed, biotinylated in vitro using the BirA enzyme); test: as above
T3 construct: the whole entry for isoform 1 is named here; also called CD97 isoform 1; Biotinylated CD97 isoform 1
T3 sequence: T1 sequence (P48960 21-552 limits assumed)

[3] = molecular target: T2, CD97 (ADGRE5) isoform 2 ectodomain, …; test: bead-based binding titration (biotinylated antigen on streptavidin beads, flow cytometry), 1:1 fit
[4] = molecular target: T3, CD97 (ADGRE5) isoform 1 ectodomain, …; test: as above
[5] = molecular target: T4, EMR2 (EGF-like module-containing mucin-like hormone receptor-like 2) isoform 4 ectodomain, purified and … (UniProt Q9UHX3-4 24-447, limits assumed, biotinylated in vitro using the BirA enzyme); test: bead-based binding titration (biotinylated antigen on streptavidin beads, flow cytometry)
T4 construct: extracellular domain; Close homolog of CD97 used as specificity control
T4 sequence (looked up): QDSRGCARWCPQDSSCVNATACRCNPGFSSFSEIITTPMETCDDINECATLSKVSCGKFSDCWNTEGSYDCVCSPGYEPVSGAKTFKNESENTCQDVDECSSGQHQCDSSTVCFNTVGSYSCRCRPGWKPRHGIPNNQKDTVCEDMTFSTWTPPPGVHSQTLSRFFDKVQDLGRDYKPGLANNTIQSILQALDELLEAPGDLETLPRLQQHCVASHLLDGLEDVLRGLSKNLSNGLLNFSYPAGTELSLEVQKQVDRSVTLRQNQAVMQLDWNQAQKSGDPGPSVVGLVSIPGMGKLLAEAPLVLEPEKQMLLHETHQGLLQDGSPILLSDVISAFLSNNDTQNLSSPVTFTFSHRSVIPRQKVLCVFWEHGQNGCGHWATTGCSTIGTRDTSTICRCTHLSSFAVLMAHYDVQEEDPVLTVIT

B1: C27: anti-CD97 antibody clone, VL SEQ ID NO: 21, VH SEQ ID NO: 46 (antibody, V domains shown)
VH: EVQLVESGGGLVQPGGSLRLSCAASGFTLSSSSIHWVRQAPGKGLEWVASIYSYYGSTYYADSVKGRFTISADTSKNTAYLQMNSLRAEDTAVYYCARYRGNMYYWESWYGSYWALDYWGQGTLVTVSS
VL: DIQMTQSPSSLSASVGDRVTITCRASQSVSSAVAWYQQKPGKAPKLLIYSASSLYSGVPSRFSGSRSGTDFTLTISSLQPEDFATYYCQQSSSSLITFGQGTKVEIKRTV
With B1 the “binding to CD97 isoform 1” value (CD97 isoform 1; Fab clones of the first antibody discovery campaign, purified biotinylated antigen on beads) was “bound only to CD97 isoform 1”.

B2: A8 Y100fHA: A8 mutant, VL SEQ ID NO: 9, VH SEQ ID NO: 111 (antibody, V domains shown)
VH: EVQLVESGGGLVQPGGSLRLSCAASGFTISSYSIHWVRQAPGKGLEWVASISPYYGSTSYADSVKGRFTISADTSKNTAYLQMNSLRAEDTAVYYCARSWYYYEQNPYWAQKEEQALDYWGQGTLVTVSS
VL: B1 VL with S92V, S93Y, L95P, I96V
B2 was tested, and the “binding of A8 CDRH3 mutants to CD97 isoform 1” value (from here on “binding of A8 CDRH3 mutants”) (CD97 isoform 1) was “substantially reduced or abolished binding to CD97”.

B3: A8 N100bHE: A8 mutant, VL SEQ ID NO: 9, VH SEQ ID NO: 109 (antibody, V domains shown)
VH: B2 VH with N106E, A110Y
VL: B1 VL with S92V, S93Y, L95P, I96V
B3 was tested, and the “binding of A8 CDRH3 mutants” value (CD97 isoform 1) was “substantially reduced or abolished binding to CD97”.

B4: A8 W100eHA: A8 mutant, VL SEQ ID NO: 9, VH SEQ ID NO: 110 (antibody, V domains shown)
VH: B2 VH with W109A, A110Y
VL: B1 VL with S92V, S93Y, L95P, I96V
With B4 the “binding of A8 CDRH3 mutants” value (CD97 isoform 1) was “substantially reduced or abolished binding to CD97”.

B5: Fab D9 (Fab, V domains shown)
VH: EVQLVESGGGLVQPGGSLRLSCAASGFTVSSSSIHWVRQAPGKGLEWVASISSYYGYTSYADSVKGRFTISADTSKNTAYLQMNSLRAEDTAVYYCARYPMFSYYYWYYGMDYWGQGTLVTVSS
VL: DIQMTQSPSSLSASVGDRVTITCRASQSVSSAVAWYQQKPGKAPKLLIYSASSLYSGVPSRFSGSRSGTDFTLTISSLQPEDFATYYCQQSSGYPVTFGQGTKVEIKR
notes: first discovery campaign; also called Antibody Clone D9
With B5 the Kd [1] was 3.6 nM and the Kd [2] was 3.4 nM.

B6: Fab D25 (Fab, V domains shown)
VH: EVQLVESGGGLVQPGGSLRLSCAASGFTFSSSSIHWVRQAPGKGLEWVASISPYYGSTSYADSVKGRFTISADTSKNTAYLQMNSLRAEDTAVYYCARKLEWGMFFWSPYFRALDYWGQGTLVTVSS
VL: B5 VL with G93S, Y94S, P95L, V96I
notes: first discovery campaign; also called Antibody Clone D25
Work on B6 yielded a Kd [1] of 14 nM and a Kd [2] of 14 nM.

B7: Fab 2Z3 (Fab, V domains shown)
VH: EVQLVESGGGLVQPGGSLRLSCAASGFTFSSSSIHWVRQAPGKGLEWVASISSSSGSTSYADSVKGRFTISADTSKNTAYLQMNSLRAEDTAVYYCARVLLGKFWYYNYYEYSAMDYWGQGTLVTVSS
VL: B5 VL with G93S, Y94S, P95L, V96I
notes: second discovery campaign; biotinylated Fab in the bead assay; also called Antibody Clone 2Z3
With B7 the Kd [3] was 7.1 nM, the Kd [4] was 7.1 nM and the binding result [5] was “no binding (tested: 50 nM)”.

B8: Fab 2X10 (Fab, V domains shown)
VH: EVQLVESGGGLVQPGGSLRLSCAASGFTFSSSSIHWVRQAPGKGLEWVASISSSSGSTSYADSVKGRFTISADTSKNTAYLQMNSLRAEDTAVYYCARSYWDMYIYWYYYVKQSRGMDYWGQGTLVTVSS
VL: B5 VL with G93S, Y94S, P95L, V96I
notes: second discovery campaign; biotinylated Fab in the bead assay; also called Antibody Clone 2X10
With B8 the Kd [3] was 41 nM, the Kd [4] was 54 nM and the binding result [5] was “no binding (tested: 100 nM)”.

B9: Fab D12 (Fab, V domains shown)
VH: EVQLVESGGGLVQPGGSLRLSCAASGFTFSSSSIHWVRQAPGKGLEWVASISSSSGSTSYADSVKGRFTISADTSKNTAYLQMNSLRAEDTAVYYCARIRHYHWYEIPYWDWAIDYWGQGTLVTVSS
VL: B5 VL with G93S, Y94S, P95L, V96I
notes: first discovery campaign; also called Antibody Clone D12
B9 gave a Kd [1] of 3.2 nM and a Kd [2] of 3 nM.

B10: Fab 2A5 (Fab, V domains shown)
VH: EVQLVESGGGLVQPGGSLRLSCAASGFTFSSSSIHWVRQAPGKGLEWVASISSSYGSTSYADSVKGRFTISADTSKNTAYLQMNSLRAEDTAVYYCARGWAYSYWYYSHYYEYEVALDYWGQGTLVTVSS
VL: DIQMTQSPSSLSASVGDRVTITCRASQSVSSAVAWYQQKPGKAPKLLIYSASSLYSGVPSRFSGSRSGTDFTLTISSLQPEDFATYYCQQSKFSSPVTFGQGTKVEIKR
notes: second discovery campaign; biotinylated Fab in the bead assay; also called Antibody Clone 2A5
For B10, the Kd [3] was 2 nM, the Kd [4] was 2.6 nM and the binding result [5] was “no binding (tested: 50 nM)”.

B11: Fab 2X12 (Fab, V domains shown)
VH: EVQLVESGGGLVQPGGSLRLSCAASGFTISSSSIHWVRQAPGKGLEWVASISSSSSYTSYADSVKGRFTISADTSKNTAYLQMNSLRAEDTAVYYCARMDISYYYYEWGFESAYYGMDYWGQGTLVTVSS
VL: B10 VL with S91W, K92W, F93G, S94P, S95E, P96L
notes: second discovery campaign; biotinylated Fab in the bead assay; also called Antibody Clone 2X12
With B11 the Kd [3] was 29 nM, the Kd [4] was 22 nM and the binding result [5] was “no binding (tested: 100 nM)”.
